{"source": "patent US20240301068A1", "about": "(BEIJING HANMI PHARMACEUTICAL, published 2024)", "binders": {"B1": {"name": "chimeric anti-human PD-L1 monoclonal antibody (antibody, human IgG1, kappa, V domains shown)", "VH": "EVQLQQSGAELVKPGASVKLSCTASGFNIEDTYIHWVMQRPEQGLEWIGRIDPANGNTKYDPKFQGKATITADTSSNTAYLQLSSLTSEDTAVYYCGRGLGAWFAYWGQGTLVTVSA", "VL": "DIVMTQSHKVMSTSVGDRVTITCKASQDVHTAVAWIHQKPGQSPKLLIYSASNRYTGVPDRFTGSGSGTDFTFTISSVQAEDLAVYYCQQHYITPLTFGAGTTLELKR", "notes": "expressed in ExpiCHO cells; also called Chimeric mAb; Chimeric antibody"}}, "key": {"[1]": {"molecular_target": "T1, recombinant human B7-H2 (Sino Biological Inc.) (human, UniProt O75144 19-258, limits assumed)", "T1 sequence (looked up)": "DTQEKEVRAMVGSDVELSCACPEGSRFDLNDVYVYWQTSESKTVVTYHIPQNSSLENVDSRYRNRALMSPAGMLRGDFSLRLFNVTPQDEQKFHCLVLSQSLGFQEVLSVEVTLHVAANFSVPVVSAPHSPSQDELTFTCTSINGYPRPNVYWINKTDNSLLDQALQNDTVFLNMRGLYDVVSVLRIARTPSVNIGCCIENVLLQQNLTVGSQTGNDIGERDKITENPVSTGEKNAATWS", "experiment": "ELISA, plate coated with 1 ug/mL recombinant human B7-H2, anti-human IgG-HRP, OD450; antibody concentration not shown", "experimental": "(§1) The plate was washed 5 times with PBST, and then blocked using PBST with 1% BSA, 300 μL/well, and incubated at 25° C. for 1 hour, and then washed 5 times with PBST. […] The horseradish peroxidase-labeled anti-human IgG antibody (Chemicon, catalog number AP309P) diluted 1:10000 in PBST with 1% BSA was then added, 100 μL per well, and incubated at 25° C. for 1 hour. The plate was washed 5 times with PBST. The colorimetric substrate TMB was added, 100 μL/well, and developed at room temperature for 10 minutes. 1M H₂SO₄ was added, 100 μL/well, to stop the development. The absorbance at 450 nm was read on a microplate reader."}, "[2]": {"molecular_target": "T2, recombinant human PD-L2 (Sino Biological Inc.) (human, UniProt Q9BQ51 20-219)", "T2 sequence (looked up)": "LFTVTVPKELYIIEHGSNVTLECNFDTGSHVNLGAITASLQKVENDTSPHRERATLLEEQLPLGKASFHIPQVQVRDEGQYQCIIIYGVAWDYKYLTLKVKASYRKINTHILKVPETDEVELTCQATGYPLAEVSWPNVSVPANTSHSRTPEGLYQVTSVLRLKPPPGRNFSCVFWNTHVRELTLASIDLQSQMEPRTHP", "experiment": "ELISA, plate coated with 1 ug/mL recombinant human PD-L2 (printed B7-DC), anti-human IgG-HRP, OD450; antibody concentration not shown", "experimental": "as §1"}, "[3]": {"molecular_target": "recombinant human CTLA4 (Sino Biological Inc.) (human, UniProt P16410 36-162)", "sequence (P16410 36-162 limits assumed)": "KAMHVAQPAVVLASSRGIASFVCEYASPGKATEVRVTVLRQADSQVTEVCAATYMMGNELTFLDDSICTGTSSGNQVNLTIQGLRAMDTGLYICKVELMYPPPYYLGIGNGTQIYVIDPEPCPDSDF", "experiment": "ELISA, plate coated with 1 ug/mL recombinant human CTLA4, anti-human IgG-HRP, OD450; antibody concentration not shown", "experimental": "as §1"}, "[4]": {"molecular_target": "recombinant human BTLA (Sino Biological Inc.) (human, UniProt Q7Z6A9 31-157, limits assumed)", "experiment": "ELISA, plate coated with 1 ug/mL recombinant human BTLA, anti-human IgG-HRP, OD450; antibody concentration not shown", "experimental": "as §1"}, "[5]": {"molecular_target": "T3, recombinant human PD-L1 (Sino Biological Inc.) (human, UniProt Q9NZQ7 19-239)", "T3 sequence (Q9NZQ7 19-239 limits assumed)": "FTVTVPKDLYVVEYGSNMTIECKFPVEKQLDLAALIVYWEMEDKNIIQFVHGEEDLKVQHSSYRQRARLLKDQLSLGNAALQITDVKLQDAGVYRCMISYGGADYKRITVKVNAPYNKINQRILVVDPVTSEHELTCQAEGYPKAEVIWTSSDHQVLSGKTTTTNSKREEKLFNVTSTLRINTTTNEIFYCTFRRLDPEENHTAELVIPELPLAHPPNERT", "experiment": "direct binding ELISA, plate coated with 1 ug/mL recombinant human PD-L1, anti-human IgG-HRP, OD450; the curve rises, the sheet labels the half-maximal value IC50", "experimental": "(§2) A 96-well high-adsorption ELISA plate was coated with 1 μg/mL of the recombinant human PD-L1 (Sino Biological Inc.) at 100 μL per well using carbonate buffer solution, pH=9.6 at 4° C. overnight. The plate was washed 5 times with PBST, and then blocked using PBST with 1% BSA, 300 μL/well, and incubated at 25° C. for 1 hour, and then washed 5 times with PBST. […] The horseradish peroxidase-labeled anti-human IgG antibody (Chemicon, catalog number AP309P) diluted 1:10000 in PBST with 1% BSA was then added, 100 μL per well, and incubated at 25° C. for 1 hour. The plate was washed 5 times with PBST. The colorimetric substrate TMB was added, 100 μL/well, and developed at room temperature for 10 minutes. 1M H₂SO₄ was added, 100 μL/well, to stop the development. The absorbance at 450 nm was read on a microplate reader."}, "[6]": {"molecular_target": "T3, recombinant human PD-L1 (Sino …)", "experiment": "affinity determination (dissociation constant), method not stated"}, "[7]": {"molecular_target": "recombinant human PD1 (Sino Biological Inc.) (human, UniProt Q15116 25-167)", "sequence (Q15116 25-167 limits assumed)": "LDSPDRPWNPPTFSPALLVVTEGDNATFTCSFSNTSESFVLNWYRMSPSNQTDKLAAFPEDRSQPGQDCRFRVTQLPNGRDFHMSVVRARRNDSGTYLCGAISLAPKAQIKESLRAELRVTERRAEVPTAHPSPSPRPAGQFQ", "experiment": "ELISA, plate coated with 1 ug/mL recombinant human PD1, anti-human IgG-HRP, OD450; antibody concentration not shown", "experimental": "as §1"}, "[8]": {"molecular_target": "T4, recombinant human ICOS (Sino Biological Inc.) (human, UniProt Q9Y6W8 21-141)", "T4 sequence (looked up)": "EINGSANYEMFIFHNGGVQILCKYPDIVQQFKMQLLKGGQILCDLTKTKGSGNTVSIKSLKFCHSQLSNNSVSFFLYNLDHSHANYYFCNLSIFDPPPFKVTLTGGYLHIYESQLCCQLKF", "experiment": "ELISA, plate coated with 1 ug/mL recombinant human ICOS, anti-human IgG-HRP, OD450; antibody concentration not shown", "experimental": "as §1"}, "[9]": {"molecular_target": "T3, recombinant human PD-L1 (Sino …)", "experiment": "SPR, Biacore X100", "experimental": "This instrument utilizes optical surface plasmon resonance technology to detect the association and dissociation between the molecules coated on the biochip and the molecules to be tested. Association constants and dissociation constants were analyzed and calculated by Biacore X100 evaluation software. […]"}, "[10]": {"molecular_target": "T5, recombinant human PD-L1-Fc protein (human, UniProt Q9NZQ7 19-238, limits assumed)", "T5 construct": "Prepared by Beijing Hanmi Pharmaceutical; The GenBank number is NP_001254635.1", "T5 sequence (Q9NZQ7 19-238 limits assumed)": "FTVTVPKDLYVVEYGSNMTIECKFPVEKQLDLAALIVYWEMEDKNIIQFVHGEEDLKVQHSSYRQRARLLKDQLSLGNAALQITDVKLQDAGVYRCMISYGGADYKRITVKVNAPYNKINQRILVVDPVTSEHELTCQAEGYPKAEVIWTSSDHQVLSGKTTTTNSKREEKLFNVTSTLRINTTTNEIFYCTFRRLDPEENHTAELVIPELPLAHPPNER", "experiment": "competition ELISA: PD-L1-Fc coated, competitor biotin-labelled PD-1-Fc", "experimental": "as §2, with “PD-L1-Fc” for “PD-L1 (Sino Biological Inc.)”, “Streptavidin-HRP (BD Pharmingen,” for “horseradish peroxidase-labeled anti-human IgG antibody (Chemicon,”, “554066)” for “AP309P)”, “1:1000” for “1:10000”"}}, "data": [{"binder": "B1", "values": [{"measurement": "binding result", "setting": "[1]", "result": "no binding"}, {"measurement": "binding result", "setting": "[2]", "result": "no binding"}, {"measurement": "binding result", "setting": "[3]", "result": "no binding"}, {"measurement": "binding result", "setting": "[4]", "result": "no binding"}, {"measurement": "EC50", "setting": "[5]", "result": 0.021, "unit": "nM"}, {"measurement": "koff", "setting": "[6]", "result": 0.000531, "unit": "s⁻¹"}, {"measurement": "binding result", "setting": "[7]", "result": "no binding"}, {"measurement": "binding result", "setting": "[8]", "result": "no binding"}, {"measurement": "Kd", "setting": "[9]", "result": 0.63, "unit": "nM"}, {"measurement": "koff", "setting": "[9]", "result": 0.000596, "unit": "s⁻¹"}, {"measurement": "kon", "setting": "[9]", "result": 946000, "unit": "M⁻¹ s⁻¹"}, {"measurement": "IC50", "setting": "[10]", "result": 0.596, "unit": "nM"}]}]}
